In patent US11306156:

Legend:
[1] = target: tissue factor (TF) antigen (UniProt P13726); assay: SPR (ProteOn), Fab captured by anti-penta-His, TF as analyte, 1:1 fit
[2] = target: tissue factor (TF) antigen (UniProt P13726); assay: SPR (ProteOn), against wild-type D3H44 Fab
[3] = target: tissue factor (TF) antigen (UniProt P13726); assay: SPR (ProteOn XPR36): Fab captured via His tag on anti-penta-His, TF as analyte, 1:1 fit
[4] = target: tissue factor (TF) antigen (UniProt P13726); assay: SPR; log ratio against wild-type D3H44 Fab
[5] = target: tissue factor (TF) antigen (UniProt P13726); assay: SPR (ProteOn), Fab captured on anti-penta-His, TF analyte, 1:1 fit
[6] = target: tissue factor (TF) antigen (UniProt P13726); assay: SPR KD against wild-type D3H44 Fab (reference KD 0.157 nM)

Chain of tissue factor (TF) antigen (P13726 33-251 limits assumed): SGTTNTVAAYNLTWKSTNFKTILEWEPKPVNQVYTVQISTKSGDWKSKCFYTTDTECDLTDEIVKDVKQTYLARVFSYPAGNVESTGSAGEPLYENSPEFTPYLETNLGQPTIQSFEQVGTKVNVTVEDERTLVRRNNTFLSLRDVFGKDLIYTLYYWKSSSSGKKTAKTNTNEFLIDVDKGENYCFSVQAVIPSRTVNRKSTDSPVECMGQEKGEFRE

Substance | Kd [1] | Change in KD with respect to wild type (-(log(KD design) - log(KD wt))) [2] | Kd [3] | Change in KD with respect to wild type (-(log(KD design) - log(KD wt))) [4] | also measured
D3H44 Fab heterodimer, H1L1 of LCCA set 9863 (H: S186K; L: Q124E_T180E) | 60 pM | 0.46 |  |  | 
D3H44 Fab heterodimer, H Q179R / L Q124E_S176L_T180E (H1L1 of LCCA set 9808) |  |  | 170 pM | -0.02 | 
D3H44 Fab heterodimer, H1L1 of LCCA sets 9708, 9712 and 9716 (H: L143E_K145T_S188L; L: Q124R_Q160K_T178R) | 240 pM | -0.19 |  |  | 
D3H44 Fab heterodimer, H S186K / L Q124E_S176L_T180E (H1L1 of LCCA set 9848) |  |  | 150 pM | 0.03 | 
D3H44 Fab heterodimer, H L143E_K145T_Q179E / L Q124R_Q160K_T178R (H1L1 of LCCA set 9654) |  |  | 150 pM | 0.02 | 
D3H44 Fab heterodimer, H1L1 of LCCA sets 9831, 9833 and 9841 (H: S186K; L: Q124E_Q160E_T180E) | 130 pM | 0.09 |  |  | 
D3H44 Fab heterodimer, H1L1 of LCCA set 9620 (H: L143E_K145T_Q179D; L: Q124R_Q160K_T178R) | 60 pM | 0.39 |  |  | 
D3H44 Fab heterodimer, H1L1 of LCCA set 9638 (H: L143E_K145T_Q179D; L: T178R) | 110 pM | 0.17 |  |  | 
D3H44 Fab heterodimer, H Q179K / L Q124E_T180E (H1L1 of LCCA sets 9797, 9794, 9789 and 9787) |  |  | 110 pM | 0.16 | 
D3H44 Fab heterodimer, H L143R / L Q124E_V133E (H1L1 of LCCA sets 9735 and 9737) |  |  | 200 pM | -0.09 | 
D3H44 Fab heterodimer, H1L1 of LCCA set 9444 (H: L124R_Q179K; L: V133G_S176D_T180E) | 280 pM | -0.26 |  |  | 
D3H44 Fab heterodimer, H1L1 of LCCA sets 9869, 9871, 9874, 9876 and 9879 (H: S186R; L: Q124E_Q160E_T180E) | 50 pM | 0.51 |  |  | 
D3H44 Fab heterodimer, H1L1 of LCCA set 9867 (H: S186R; L: Q124E_Q160E_T178E) | 140 pM | 0.06 |  |  | 
D3H44 Fab heterodimer, H L143E_K145T_Q179D / L Q124R_T178K (H1L1 of LCCA set 9626) |  |  | 120 pM | 0.12 | 
D3H44 Fab heterodimer, H1L1 of LCCA set 9575 (H: L143D_K145T_Q179E; L: T178R) | 280 pM | -0.25 |  |  | 
D3H44 Fab heterodimer, H S186K / L Q124E_Q160E_T180E (H1L1 of LCCA sets 9836 and 9841) |  |  | 130 pM | 0.09 | 

Substance | Kd [1] | Change in KD with respect to wild type (-(log(KD design) - log(KD wt))) [2] | Kd [3] | Change in KD with respect to wild type (-(log(KD design) - log(KD wt))) [4] | also measured
D3H44 Fab heterodimer, H L143E_K145T_Q179E_S188L / L Q124R_T178R (H1L1 of LCCA sets 9696 and 9692) |  |  | 340 pM | -0.34 | 
D3H44 Fab heterodimer, H S186R / L Q124E_T180E (H1L1 of LCCA sets 9891, 9901, 9898 and 9893) |  |  | 70 pM | 0.36 | 
D3H44 Fab heterodimer, H1L1 of LCCA set 9901 (H: S186R; L: Q124E_T180E) | 70 pM | 0.36 |  |  | 
D3H44 Fab heterodimer, H1L1 of LCCA set 9885 (H: S186R; L: Q124E_S176L_T180E) | 180 pM | -0.06 |  |  | 
D3H44 Fab heterodimer, H: L124W_L143F_K145T_Q179E, L: S131K_V133A_S176T_T178L (H1L1 Fab of LCCA sets 9571 and 9572) |  |  |  |  | Kd [5]: 260 pM; Change in KD with respect to wild type (-(log(KD design) - log(KD wt))) [6]: -0.21
D3H44 Fab heterodimer, H L143E_K145T / L Q124R (H1L1 of LCCA set 9587) |  |  | 280 pM | -0.25 | 
D3H44 Fab heterodimer, H: L143K, L: Q124E_V133D (H1L1 Fab of LCCA set 9731) |  |  |  |  | Kd [5]: 280 pM; Change in KD with respect to wild type (-(log(KD design) - log(KD wt))) [6]: -0.26
D3H44 Fab heterodimer, H S186K / L Q124E_T180E (H1L1 of LCCA sets 9855, 9860 and 9863) |  |  | 60 pM | 0.46 | 
D3H44 Fab heterodimer, H Q179K / L Q124E_S176L_T180E (H1L1 of LCCA set 9782) |  |  | 80 pM | 0.28 | 
D3H44 Fab heterodimer, H: L143R, L: Q124E_V133E (H1L1 Fab of LCCA set 9740) |  |  |  |  | Kd [5]: 200 pM; Change in KD with respect to wild type (-(log(KD design) - log(KD wt))) [6]: -0.09
D3H44 Fab heterodimer, H: S186K, L: Q124E_Q160E_T180E (H1L1 Fab of LCCA set 9838) |  |  |  |  | Kd [5]: 130 pM; Change in KD with respect to wild type (-(log(KD design) - log(KD wt))) [6]: 0.09
D3H44 Fab heterodimer, H: Q179R, L: Q124E_T178E_T180E (H1L1 Fab of LCCA set 9812) |  |  |  |  | Kd [5]: 160 pM; Change in KD with respect to wild type (-(log(KD design) - log(KD wt))) [6]: -0.01
D3H44 Fab heterodimer, H1L1 of LCCA set 9688 (H: L143E_K145T_Q179E_S188L; L: Q124R_T178R) | 340 pM | -0.34 |  |  | 
D3H44 Fab heterodimer, H: Q179K, L: Q124E_Q160E_T180E (H1L1 Fab of LCCA set 9759) |  |  |  |  | Kd [5]: 320 pM; Change in KD with respect to wild type (-(log(KD design) - log(KD wt))) [6]: -0.31
D3H44 Fab heterodimer, H: S186K, L: Q124E_T178E (H1L1 Fab of LCCA set 9850) |  |  |  |  | Kd [5]: 150 pM; Change in KD with respect to wild type (-(log(KD design) - log(KD wt))) [6]: 0.01

More lines, main results first:

Kd [1] | Change in KD with respect to wild type (-(log(KD design) - log(KD wt))) [2] | Kd [3] | Change in KD with respect to wild type (-(log(KD design) - log(KD wt))) [4] | Substance | also measured
110 pM | 0.14 |  |  | D3H44 Fab heterodimer, H1L1 of LCCA set 9803 (H: Q179R; L: Q124E_S131T_T178F_T180E) | 
170 pM | -0.03 |  |  | D3H44 Fab heterodimer, H1L1 of LCCA set 9843 (H: S186K; L: Q124E_S131T_T178F_T180E) | 
 |  | 320 pM | -0.31 | D3H44 Fab heterodimer, H Q179K / L Q124E_Q160E_T180E (H1L1 of LCCA sets 9761, 9769 and 9767) | 
 |  | 50 pM | 0.51 | D3H44 Fab heterodimer, H S186R / L Q124E_Q160E_T180E (H1L1 of LCCA sets 9876 and 9874) | 
300 pM | -0.28 |  |  | D3H44 Fab heterodimer, H1L1 of LCCA set 9684 (H: L143E_K145T_Q179E; L: T178R) | 
280 pM | -0.25 |  |  | D3H44 Fab heterodimer, H1L1 of LCCA set 9588 (H: L143E_K145T; L: Q124R) | 
 |  | 180 pM | -0.06 | D3H44 Fab heterodimer, H S186R / L Q124E_S176L_T180E (H1L1 of LCCA set 9886) | 
140 pM | 0.05 |  |  | D3H44 Fab heterodimer, H1L1 of LCCA set 9983 (H: Q179K; L: S131E) | 
110 pM | 0.15 |  |  | D3H44 Fab heterodimer, H1L1 of LCCA sets 9881 and 9882 (H: S186R; L: Q124E_S131T_T178F_T180E) | 
320 pM | -0.31 |  |  | D3H44 Fab heterodimer, H1L1 of LCCA sets 9763 and 9773 (H: Q179K; L: Q124E_Q160E_T180E) | 
140 pM | 0.06 |  |  | D3H44 Fab heterodimer, H1L1 of LCCA set 9887 (H: S186R; L: Q124E_T178E) | 
110 pM | 0.15 |  |  | D3H44 Fab heterodimer, H1L1 of LCCA set 9987 (H: L143E_K145T; L: Q124R_T178R) | 
 |  | 130 pM | 0.09 | D3H44 Fab heterodimer, H S186K / L Q124E_S131T_T178Y_T180E (H1L1 of LCCA set 9846) | 
70 pM | 0.34 |  |  | D3H44 Fab heterodimer, H1L1 of LCCA set 9741 (H: L143R; L: Q124E_V133E_Q160F) | 
140 pM | 0.04 |  |  | D3H44 Fab heterodimer, H1L1 of LCCA set 9632 (H: L143E_K145T_Q179D; L: Q124R_T178R) | 
 |  | 60 pM | 0.41 | D3H44 Fab heterodimer, H S186K / L Q124E_Q160E_T178E (H1L1 of LCCA set 9829) | 
